How the values were obtained:
[1] = target: T1, Aα chain of Fg (UniProt P02671 20-629); experiment: Western ligand blot, biotin labeled rSdrG(50-597)
T1 construct: Chain of native Fg on a Western ligand blot
T1 sequence: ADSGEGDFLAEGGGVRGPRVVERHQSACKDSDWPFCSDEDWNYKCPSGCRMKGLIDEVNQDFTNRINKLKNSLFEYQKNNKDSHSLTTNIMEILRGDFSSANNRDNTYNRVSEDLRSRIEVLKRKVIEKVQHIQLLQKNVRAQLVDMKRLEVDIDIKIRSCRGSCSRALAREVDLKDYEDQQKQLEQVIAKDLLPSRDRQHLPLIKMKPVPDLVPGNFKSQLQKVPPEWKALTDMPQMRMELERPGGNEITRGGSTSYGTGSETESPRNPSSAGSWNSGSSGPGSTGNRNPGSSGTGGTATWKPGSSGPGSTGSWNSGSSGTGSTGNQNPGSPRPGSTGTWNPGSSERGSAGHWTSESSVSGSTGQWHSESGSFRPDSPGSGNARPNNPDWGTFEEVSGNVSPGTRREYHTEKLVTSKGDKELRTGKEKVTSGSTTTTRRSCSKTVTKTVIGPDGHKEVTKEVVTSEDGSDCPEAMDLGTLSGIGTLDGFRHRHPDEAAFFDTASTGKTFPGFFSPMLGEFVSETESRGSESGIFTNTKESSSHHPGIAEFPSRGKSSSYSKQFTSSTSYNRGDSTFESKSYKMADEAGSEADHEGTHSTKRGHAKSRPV

[2] = target: T2, thrombin digested Fg (human, UniProt P02671 36-629; P02675 45-491; P02679 27-437); experiment: ELISA, Fg-coated wells pretreated with thrombin, biotin labeled rSdrG(50-597)
T2 construct: Fg coated on wells and treated with 1.0 NIH unit/ml thrombin for 30 min; also called thrombin-treated Fg; Fg treated with thrombin
T2 sequence 1: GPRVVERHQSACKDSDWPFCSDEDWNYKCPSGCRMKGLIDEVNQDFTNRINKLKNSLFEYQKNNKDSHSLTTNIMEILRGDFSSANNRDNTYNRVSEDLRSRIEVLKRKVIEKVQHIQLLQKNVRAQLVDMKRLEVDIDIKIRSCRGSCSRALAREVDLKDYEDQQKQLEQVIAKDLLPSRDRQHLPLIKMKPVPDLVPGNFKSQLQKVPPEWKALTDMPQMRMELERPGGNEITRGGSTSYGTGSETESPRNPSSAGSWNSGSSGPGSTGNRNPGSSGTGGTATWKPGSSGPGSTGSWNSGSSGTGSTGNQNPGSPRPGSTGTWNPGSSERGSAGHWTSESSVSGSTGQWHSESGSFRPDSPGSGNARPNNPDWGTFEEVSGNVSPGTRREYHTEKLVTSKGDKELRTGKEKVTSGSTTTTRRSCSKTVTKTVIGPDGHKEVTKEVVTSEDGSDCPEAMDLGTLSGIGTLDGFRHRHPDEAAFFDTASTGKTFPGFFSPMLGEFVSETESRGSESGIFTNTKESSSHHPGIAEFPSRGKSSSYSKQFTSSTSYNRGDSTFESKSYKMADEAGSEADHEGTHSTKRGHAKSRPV
T2 sequence 2: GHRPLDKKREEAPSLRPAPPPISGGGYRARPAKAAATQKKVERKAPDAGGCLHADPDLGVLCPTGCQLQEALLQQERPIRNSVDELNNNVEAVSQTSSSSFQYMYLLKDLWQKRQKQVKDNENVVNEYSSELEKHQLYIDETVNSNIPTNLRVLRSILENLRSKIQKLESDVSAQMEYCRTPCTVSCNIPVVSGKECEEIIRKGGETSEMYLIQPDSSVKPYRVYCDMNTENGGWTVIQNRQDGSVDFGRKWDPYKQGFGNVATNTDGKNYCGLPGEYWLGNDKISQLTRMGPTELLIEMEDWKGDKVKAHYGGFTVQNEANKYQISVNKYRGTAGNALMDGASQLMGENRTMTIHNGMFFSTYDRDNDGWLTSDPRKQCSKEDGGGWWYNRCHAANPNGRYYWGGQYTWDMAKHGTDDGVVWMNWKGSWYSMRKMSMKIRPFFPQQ
T2 sequence 3: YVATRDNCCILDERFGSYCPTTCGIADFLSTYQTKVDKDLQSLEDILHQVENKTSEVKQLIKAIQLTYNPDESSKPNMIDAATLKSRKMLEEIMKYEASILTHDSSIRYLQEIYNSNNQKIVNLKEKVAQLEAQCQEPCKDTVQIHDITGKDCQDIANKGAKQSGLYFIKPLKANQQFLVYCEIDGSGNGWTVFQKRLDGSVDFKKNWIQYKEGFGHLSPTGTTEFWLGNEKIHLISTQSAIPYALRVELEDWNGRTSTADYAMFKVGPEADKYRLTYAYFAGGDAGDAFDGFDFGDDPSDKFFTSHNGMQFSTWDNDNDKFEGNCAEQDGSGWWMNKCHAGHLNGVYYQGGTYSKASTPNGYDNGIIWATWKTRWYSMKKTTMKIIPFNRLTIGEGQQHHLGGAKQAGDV

[3] = target: T3, fibrinogen (Fg) (human, UniProt P02671 20-629; P02675 31-491; P02679 27-437); experiment: ELISA, increasing rSdrG(50-597) on immobilized Fg, anti-His-tag detection; apparent KD
T3 construct: Purified native Fg bought from Enzyme Research Labs, coated on microtiter wells (1 µg); also called human Fg; immobilized Fg
T3 sequence 1: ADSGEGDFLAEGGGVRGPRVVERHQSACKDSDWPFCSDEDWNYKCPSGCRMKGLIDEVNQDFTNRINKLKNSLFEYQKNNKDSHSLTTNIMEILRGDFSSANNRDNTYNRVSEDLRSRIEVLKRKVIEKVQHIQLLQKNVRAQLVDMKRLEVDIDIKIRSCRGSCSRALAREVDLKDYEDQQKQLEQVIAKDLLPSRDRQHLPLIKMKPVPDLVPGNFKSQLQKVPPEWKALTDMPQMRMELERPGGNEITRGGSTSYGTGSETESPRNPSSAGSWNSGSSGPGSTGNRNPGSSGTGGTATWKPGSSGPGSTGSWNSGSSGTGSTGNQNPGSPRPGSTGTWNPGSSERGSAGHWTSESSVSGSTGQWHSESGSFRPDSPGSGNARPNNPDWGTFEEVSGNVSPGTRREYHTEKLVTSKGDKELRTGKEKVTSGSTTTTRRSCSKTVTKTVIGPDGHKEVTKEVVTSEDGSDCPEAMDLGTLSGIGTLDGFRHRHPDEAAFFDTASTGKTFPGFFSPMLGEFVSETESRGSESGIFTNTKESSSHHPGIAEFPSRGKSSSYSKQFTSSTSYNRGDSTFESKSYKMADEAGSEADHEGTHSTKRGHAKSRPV
T3 sequence 2: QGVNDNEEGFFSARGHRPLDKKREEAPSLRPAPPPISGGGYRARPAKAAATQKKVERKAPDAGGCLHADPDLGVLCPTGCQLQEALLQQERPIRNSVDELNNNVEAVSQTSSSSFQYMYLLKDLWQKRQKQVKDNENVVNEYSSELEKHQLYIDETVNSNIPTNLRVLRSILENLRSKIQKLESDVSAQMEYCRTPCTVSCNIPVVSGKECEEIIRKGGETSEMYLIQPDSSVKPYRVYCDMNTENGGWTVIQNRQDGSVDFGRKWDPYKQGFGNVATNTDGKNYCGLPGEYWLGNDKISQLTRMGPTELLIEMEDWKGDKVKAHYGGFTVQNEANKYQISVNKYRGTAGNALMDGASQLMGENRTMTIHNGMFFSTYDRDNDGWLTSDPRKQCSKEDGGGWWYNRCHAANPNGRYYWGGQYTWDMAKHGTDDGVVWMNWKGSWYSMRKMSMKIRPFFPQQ
T3 sequence 3: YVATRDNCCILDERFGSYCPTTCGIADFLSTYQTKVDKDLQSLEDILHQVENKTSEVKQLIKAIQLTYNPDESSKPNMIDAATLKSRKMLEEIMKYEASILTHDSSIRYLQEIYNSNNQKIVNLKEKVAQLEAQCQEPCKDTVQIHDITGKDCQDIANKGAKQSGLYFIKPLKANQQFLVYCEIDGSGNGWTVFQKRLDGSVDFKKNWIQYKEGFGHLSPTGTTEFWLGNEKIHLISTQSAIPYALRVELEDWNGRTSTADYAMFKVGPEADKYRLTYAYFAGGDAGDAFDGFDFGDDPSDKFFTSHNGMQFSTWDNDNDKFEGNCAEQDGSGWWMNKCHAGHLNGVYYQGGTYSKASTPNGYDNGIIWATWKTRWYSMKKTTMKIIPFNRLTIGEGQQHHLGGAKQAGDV

[4] = target: T4, Fg treated with contortrixobin (human, UniProt P02671 20-629; P02675 45-491; P02679 27-437); experiment: ELISA of Example 2, Fg-coated wells pretreated with protease, biotin labeled rSdrG(50-597)
T4 construct: Fg coated on wells and treated for 30 min at room temperature with contortrixobin from Agkistrodon contortrix contortrix; also called contortrixobin-treated Fg
T4 sequence 1: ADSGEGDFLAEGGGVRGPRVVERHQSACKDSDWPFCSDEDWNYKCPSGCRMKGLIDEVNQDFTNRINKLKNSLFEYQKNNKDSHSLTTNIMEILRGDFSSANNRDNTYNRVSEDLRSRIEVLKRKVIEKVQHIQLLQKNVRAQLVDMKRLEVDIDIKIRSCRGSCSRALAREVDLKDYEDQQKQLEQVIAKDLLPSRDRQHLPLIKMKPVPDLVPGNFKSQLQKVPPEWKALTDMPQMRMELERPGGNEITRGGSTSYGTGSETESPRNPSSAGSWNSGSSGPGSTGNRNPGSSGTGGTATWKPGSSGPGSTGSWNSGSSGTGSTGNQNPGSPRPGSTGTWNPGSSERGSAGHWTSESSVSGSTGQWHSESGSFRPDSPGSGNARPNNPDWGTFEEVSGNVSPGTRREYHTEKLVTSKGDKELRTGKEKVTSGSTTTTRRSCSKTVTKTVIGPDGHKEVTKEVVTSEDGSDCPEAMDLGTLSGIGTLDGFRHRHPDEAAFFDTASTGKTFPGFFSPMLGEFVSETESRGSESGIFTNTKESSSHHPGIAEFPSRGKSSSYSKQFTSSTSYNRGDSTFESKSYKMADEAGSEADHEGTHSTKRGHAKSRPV
T4 sequence 2: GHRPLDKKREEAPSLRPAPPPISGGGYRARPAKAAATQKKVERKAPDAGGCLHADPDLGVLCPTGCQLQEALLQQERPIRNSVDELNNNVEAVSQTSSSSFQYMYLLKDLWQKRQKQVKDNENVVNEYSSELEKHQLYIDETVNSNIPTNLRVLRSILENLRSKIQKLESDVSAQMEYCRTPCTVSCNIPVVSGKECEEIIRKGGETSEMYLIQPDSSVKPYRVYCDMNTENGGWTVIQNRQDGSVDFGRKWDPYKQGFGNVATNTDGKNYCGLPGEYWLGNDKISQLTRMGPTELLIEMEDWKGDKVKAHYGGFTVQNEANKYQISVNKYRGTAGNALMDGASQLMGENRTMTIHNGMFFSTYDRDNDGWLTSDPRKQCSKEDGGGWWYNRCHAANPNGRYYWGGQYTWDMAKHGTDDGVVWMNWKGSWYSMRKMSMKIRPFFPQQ
T4 sequence 3: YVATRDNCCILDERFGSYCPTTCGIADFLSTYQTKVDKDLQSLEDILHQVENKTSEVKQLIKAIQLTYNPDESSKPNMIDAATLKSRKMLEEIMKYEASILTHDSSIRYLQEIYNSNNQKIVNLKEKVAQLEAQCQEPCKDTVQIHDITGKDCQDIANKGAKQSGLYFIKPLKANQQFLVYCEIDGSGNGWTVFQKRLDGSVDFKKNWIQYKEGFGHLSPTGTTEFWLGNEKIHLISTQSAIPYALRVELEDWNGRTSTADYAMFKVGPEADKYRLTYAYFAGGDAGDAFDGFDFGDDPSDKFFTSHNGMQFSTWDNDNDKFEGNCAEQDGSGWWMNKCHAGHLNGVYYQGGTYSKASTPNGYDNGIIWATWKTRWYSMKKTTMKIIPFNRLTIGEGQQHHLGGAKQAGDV

B1: rSdrG(50-597) (other)
chain: HHHHHHAEENTVQDVKDSNMDDELSDSNDQSSNEEKNDVINNSQSINTDDDNQIKKEETNSNDAIENRSKDITQSTTNVDENEATFLQKTPQDNTQLKEEVVKEPSSVESSNSSMDTAQQPSHTTINSEASIQTSDNEENSRVSDFANSKIIESNTESNKEENTIEQPNKVREDSITSQPSSYKNIDEKISNQDELLNLPINEYENKVRPLSTTSAQPSSKRVTVNQLAAEQGSNVNHLIKVTDQSITEGYDDSDGIIKAHDAENLIYDVTFEVDDKVKSGDTMTVNIDKNTVPSDLTDSFAIPKIKDNSGEIIATGTYDNTNKQITYTFTDYVDKYENIKAHLKLTSYIDKSKVPNNNTKLDVEYKTALSSVNKTITVEYQKPNENRTANLQSMFTNIDTKNHTVEQTIYINPLRYSAKETNVNISGNGDEGSTIIDDSTIIKVYKVGDNQNLPDSNRIYDYSEYEDVTNDDYAQLGNNNDVNINFGNIDSPYIIKVISKYDPNKDDYTTIQQTVTMQTTINEYTGEFRTASYDNTIAFSTSSGQGQGDLPPE
notes: Used biotin labeled in the Western ligand blots and in the ELISAs on protease-treated Fg; also called recombinant SdrG A-region; recombinant form of the N-terminal A-region of SdrG
B1 was tested, and the binding result [1] was “no binding”, the binding result [2] was “no binding (tested: 25-1000 nM)” and the Kd [3] was 90 nM. B1: no binding (tested: 25-1000 nM) [4].
